According to PMC4373775:
Residue numbers refer to the chain shown, from its start.

Columns and labels:
[1] = biological target: T1, ParB_Ala S5A;T32A;T41A;T53A;T110A;T195A;S239A;T254A;T300A;T303A (Mycobacterium tuberculosis H37Rv) (UniProt P9WIJ9); experiment: EMSA
T1 sequence: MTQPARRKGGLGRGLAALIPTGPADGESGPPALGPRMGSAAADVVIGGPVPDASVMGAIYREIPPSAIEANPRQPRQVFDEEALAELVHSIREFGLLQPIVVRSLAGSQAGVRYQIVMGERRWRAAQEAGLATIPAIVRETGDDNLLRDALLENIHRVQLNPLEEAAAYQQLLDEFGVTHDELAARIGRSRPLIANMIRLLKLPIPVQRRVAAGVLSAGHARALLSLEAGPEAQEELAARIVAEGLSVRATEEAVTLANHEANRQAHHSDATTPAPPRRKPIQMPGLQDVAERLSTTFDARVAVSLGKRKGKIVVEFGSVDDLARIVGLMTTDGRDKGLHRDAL

[2] = biological target: T2, ParB_Asp S5D;T32D;T41D;T53D;T110D;T195D;S239D;T254D;T300D;T303D (Mycobacterium tuberculosis H37Rv) (UniProt P9WIJ9); experiment: EMSA
T2 sequence: T1 sequence with A5D, A32D, A41D, A53D, A110D, A195D, A239D, A254D, A300D, A303D

In the case of “GCGAGTGGAGGGACGGCGTGAGTGCTCCGTGGGGCCCGGTGGCCGCTGGACCGTCCGCGCTCGTAAGGTCGGGCCAGGCTTCAACTATCGAACCATTCCAGCGGGAAATGACACCACCGACACCGACGCCTGAGGCCGCGCACAATCCGACGATGAATGTTTCACGTGAAACATCGACAGAATTCGACACCCCCATCGGCGCTGCAGCAGAACGTGCGATGCG (double strand) [parS probe]”, the binding [1] is reported as “binds” and the binding [2] is reported as “binds more weakly”.
